Our source for the Kd values is PMC9044722.

The target of experiment [1] is His-CRM1 recombinant protein (UniProt O14980). Nature of the experiment: SPR; without TLNC1. The settings on record: natural protein; chains chain; remark: other sources report otherwise. A general note: SPR reads the build-up and loss of mass on a sensor chip optically.
Experiment [2] shares this target. The experiment in a line: SPR; with TLNC1 (lncRNA). The settings on record: natural protein; chains chain; remark: other sources report otherwise.

UniProt O14980, sequence (O14980 whole entry): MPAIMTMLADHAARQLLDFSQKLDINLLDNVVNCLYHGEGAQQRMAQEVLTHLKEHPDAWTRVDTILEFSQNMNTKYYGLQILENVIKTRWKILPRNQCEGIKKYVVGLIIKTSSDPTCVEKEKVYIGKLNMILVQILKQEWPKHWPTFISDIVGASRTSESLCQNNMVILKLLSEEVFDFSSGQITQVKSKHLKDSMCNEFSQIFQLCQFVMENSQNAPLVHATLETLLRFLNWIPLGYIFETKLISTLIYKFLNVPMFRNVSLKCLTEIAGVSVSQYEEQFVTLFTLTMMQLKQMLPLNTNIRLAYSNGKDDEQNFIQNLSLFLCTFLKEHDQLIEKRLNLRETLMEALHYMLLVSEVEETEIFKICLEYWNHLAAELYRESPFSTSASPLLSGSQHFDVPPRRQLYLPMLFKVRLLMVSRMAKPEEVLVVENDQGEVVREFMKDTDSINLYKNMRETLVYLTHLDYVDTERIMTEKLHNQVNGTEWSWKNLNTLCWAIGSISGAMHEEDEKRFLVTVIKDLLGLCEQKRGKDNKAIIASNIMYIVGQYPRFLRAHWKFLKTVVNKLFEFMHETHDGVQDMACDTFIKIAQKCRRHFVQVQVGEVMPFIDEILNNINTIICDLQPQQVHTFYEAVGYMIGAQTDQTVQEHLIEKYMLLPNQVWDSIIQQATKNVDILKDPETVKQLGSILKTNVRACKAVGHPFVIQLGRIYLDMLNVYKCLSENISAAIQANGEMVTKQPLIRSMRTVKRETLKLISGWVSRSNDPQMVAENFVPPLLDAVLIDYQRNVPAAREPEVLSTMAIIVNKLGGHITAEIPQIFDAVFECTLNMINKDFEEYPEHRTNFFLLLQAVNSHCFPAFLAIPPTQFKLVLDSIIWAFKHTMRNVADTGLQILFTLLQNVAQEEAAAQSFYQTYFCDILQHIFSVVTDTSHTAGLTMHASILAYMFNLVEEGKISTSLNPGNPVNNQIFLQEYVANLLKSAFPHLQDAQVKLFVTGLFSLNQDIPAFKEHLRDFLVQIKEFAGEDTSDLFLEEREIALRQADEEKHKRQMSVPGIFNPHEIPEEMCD

One may read the Kd as the concentration at which binding is half-saturated. As for “His-TPR recombinant protein, P12270 1-2363”, the results for the equilibrium dissociation constant (Kd) in experiment [1] and in experiment [2] were 0.181 µM and 0.0316 µM, respectively.
